Test results reported in US20130005646A1 (Novo Nordisk, published 2013).
Starred links: 1 amine or outer side, 2 acyl side, 3 side chain; linkers in the order of their positions; H or OH if unused. Positions of bridges follow the written chain, without caps; N, C: chain ends. *: point of attachment. C20 diacid = O=C(O)CCCCCCCCCCCCCCCCCCC(=O)*; γGlu = O=C(O)[C@H](CCC(=O)[*:2])N[*:1]

T1: human amylin 3(a) receptor (human calcitonin receptor + RAMP-3) (human, UniProt P30988 25-474; O60896 24-148)
T1 sequence (looked up) 1: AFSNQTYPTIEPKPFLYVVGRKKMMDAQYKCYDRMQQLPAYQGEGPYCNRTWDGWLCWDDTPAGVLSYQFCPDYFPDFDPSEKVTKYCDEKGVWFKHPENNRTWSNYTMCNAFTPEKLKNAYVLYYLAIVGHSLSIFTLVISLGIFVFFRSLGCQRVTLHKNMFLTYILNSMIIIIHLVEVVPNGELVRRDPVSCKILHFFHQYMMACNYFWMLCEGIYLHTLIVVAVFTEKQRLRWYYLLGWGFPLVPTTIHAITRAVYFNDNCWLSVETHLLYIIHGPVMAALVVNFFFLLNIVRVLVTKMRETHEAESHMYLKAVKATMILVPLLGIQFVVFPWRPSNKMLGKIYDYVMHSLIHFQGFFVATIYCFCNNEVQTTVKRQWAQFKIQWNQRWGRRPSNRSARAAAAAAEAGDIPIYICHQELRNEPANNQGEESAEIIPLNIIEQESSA
T1 sequence (looked up) 2: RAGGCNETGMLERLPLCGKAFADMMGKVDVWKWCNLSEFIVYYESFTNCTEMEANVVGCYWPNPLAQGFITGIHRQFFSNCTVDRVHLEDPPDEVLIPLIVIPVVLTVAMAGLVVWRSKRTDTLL

T2: human calcitonin (a) receptor (human, UniProt P30988 25-474)
T2 sequence (looked up): T1 sequence (looked up) 1

T3: rat calcitonin (a) receptor (rat, UniProt P32214 25-516)
T3 sequence (looked up): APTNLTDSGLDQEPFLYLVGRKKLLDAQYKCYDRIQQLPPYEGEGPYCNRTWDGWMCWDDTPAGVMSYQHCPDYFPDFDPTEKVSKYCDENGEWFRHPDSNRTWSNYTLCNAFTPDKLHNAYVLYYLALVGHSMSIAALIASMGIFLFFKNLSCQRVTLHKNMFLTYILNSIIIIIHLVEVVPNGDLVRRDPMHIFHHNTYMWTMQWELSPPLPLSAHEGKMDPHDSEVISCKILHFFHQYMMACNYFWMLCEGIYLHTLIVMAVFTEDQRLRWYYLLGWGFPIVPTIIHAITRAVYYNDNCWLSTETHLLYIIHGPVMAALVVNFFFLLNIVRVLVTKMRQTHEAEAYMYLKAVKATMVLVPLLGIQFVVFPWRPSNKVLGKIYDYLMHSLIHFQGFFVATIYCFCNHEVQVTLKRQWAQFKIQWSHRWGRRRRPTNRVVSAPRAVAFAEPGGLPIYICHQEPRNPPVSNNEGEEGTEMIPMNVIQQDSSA

T4: rat amylin 3(a) receptor (rat calcitonin(a) receptor + rat RAMP3) (rat, UniProt P32214 25-516; Q9JJ73 23-147)
T4 sequence (looked up) 1: T3 sequence (looked up)
T4 sequence (looked up) 2: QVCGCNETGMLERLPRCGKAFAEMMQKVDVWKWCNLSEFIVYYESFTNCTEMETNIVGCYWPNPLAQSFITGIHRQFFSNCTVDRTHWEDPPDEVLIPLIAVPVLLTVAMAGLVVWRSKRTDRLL

B1: N-alpha-[(S)-4-Carboxy-4-(19-carboxynonadecanoylamino)butyryl]-[His1,Glu14,His17]-pramlintide (peptide)
peptide: {C20 diacid-γGlu}-HCNTATCATQRLAEFLHHSSNNFGPILPPTNVGSNTY-NH2
modifications: disulfide 2-7; not fully specified; printed as N-alpha-[(S)-4-Carboxy-4-(19-carboxynonadecanoylamino)butyryl]-[His1,Glu14,His17]-pramlintide
B2: N-alpha-[(S)-4-Carboxy-4-(19-carboxynonadecanoylamino)butyryl]-His-His-[His1,Glu14,His17,Ala25,Pro26,Ser28,Ser29]-pramlintide (peptide)
peptide: {C20 diacid-γGlu}-HHHCNTATCATQRLAEFLHHSSNNFGAPLSSTNVGSNTY-NH2
modifications: disulfide 4-9
SMILES: CC(C)C[C@H](NC(=O)[C@H](CCCNC(=N)N)NC(=O)[C@H](CCC(N)=O)NC(=O)[C@@H](NC(=O)[C@H](C)NC(=O)[C@@H]1CSSC[C@H](NC(=O)[C@H](Cc2c[nH]cn2)NC(=O)[C@H](Cc2c[nH]cn2)NC(=O)[C@H](Cc2c[nH]cn2)NC(=O)CC[C@H](NC(=O)CCCCCCCCCCCCCCCCCCC(=O)O)C(=O)O)C(=O)N[C@@H](CC(N)=O)C(=O)N[C@@H]([C@@H](C)O)C(=O)N[C@@H](C)C(=O)N[C@@H]([C@@H](C)O)C(=O)N1)[C@@H](C)O)C(=O)N[C@@H](C)C(=O)N[C@@H](CCC(=O)O)C(=O)N[C@@H](Cc1ccccc1)C(=O)N[C@@H](CC(C)C)C(=O)N[C@@H](Cc1c[nH]cn1)C(=O)N[C@@H](Cc1c[nH]cn1)C(=O)N[C@@H](CO)C(=O)N[C@@H](CO)C(=O)N[C@@H](CC(N)=O)C(=O)N[C@@H](CC(N)=O)C(=O)N[C@@H](Cc1ccccc1)C(=O)NCC(=O)N[C@@H](C)C(=O)N1CCC[C@H]1C(=O)N[C@@H](CC(C)C)C(=O)N[C@@H](CO)C(=O)N[C@@H](CO)C(=O)N[C@H](C(=O)N[C@@H](CC(N)=O)C(=O)N[C@H](C(=O)NCC(=O)N[C@@H](CO)C(=O)N[C@@H](CC(N)=O)C(=O)N[C@H](C(=O)N[C@@H](Cc1ccc(O)cc1)C(N)=O)[C@@H](C)O)C(C)C)[C@@H](C)O
B3: N-alpha-[(S)-4-Carboxy-4-(19-carboxynonadecanoylamino)butyryl]-His-His-[His1,Glu14,His17,Arg35]-pramlintide (peptide)
peptide: {C20 diacid-γGlu}-HHHCNTATCATQRLAEFLHHSSNNFGPILPPTNVGSRTY-NH2
modifications: disulfide 4-9
SMILES: CC[C@H](C)[C@H](NC(=O)[C@@H]1CCCN1C(=O)CNC(=O)[C@H](Cc1ccccc1)NC(=O)[C@H](CC(N)=O)NC(=O)[C@H](CC(N)=O)NC(=O)[C@H](CO)NC(=O)[C@H](CO)NC(=O)[C@H](Cc1c[nH]cn1)NC(=O)[C@H](Cc1c[nH]cn1)NC(=O)[C@H](CC(C)C)NC(=O)[C@H](Cc1ccccc1)NC(=O)[C@H](CCC(=O)O)NC(=O)[C@H](C)NC(=O)[C@H](CC(C)C)NC(=O)[C@H](CCCNC(=N)N)NC(=O)[C@H](CCC(N)=O)NC(=O)[C@@H](NC(=O)[C@H](C)NC(=O)[C@@H]1CSSC[C@H](NC(=O)[C@H](Cc2c[nH]cn2)NC(=O)[C@H](Cc2c[nH]cn2)NC(=O)[C@H](Cc2c[nH]cn2)NC(=O)CC[C@H](NC(=O)CCCCCCCCCCCCCCCCCCC(=O)O)C(=O)O)C(=O)N[C@@H](CC(N)=O)C(=O)N[C@@H]([C@@H](C)O)C(=O)N[C@@H](C)C(=O)N[C@@H]([C@@H](C)O)C(=O)N1)[C@@H](C)O)C(=O)N[C@@H](CC(C)C)C(=O)N1CCC[C@H]1C(=O)N1CCC[C@H]1C(=O)N[C@H](C(=O)N[C@@H](CC(N)=O)C(=O)N[C@H](C(=O)NCC(=O)N[C@@H](CO)C(=O)N[C@@H](CCCNC(=N)N)C(=O)N[C@H](C(=O)N[C@@H](Cc1ccc(O)cc1)C(N)=O)[C@@H](C)O)C(C)C)[C@@H](C)O
B4: N-alpha-[(S)-4-Carboxy-4-(19-carboxynonadecanoylamino)butyryl]-His-[His1,Glu14,His17]-pramlintide (peptide)
peptide: {C20 diacid-γGlu}-HHCNTATCATQRLAEFLHHSSNNFGPILPPTNVGSNTY-NH2
modifications: disulfide 3-8
SMILES: CC[C@H](C)[C@H](NC(=O)[C@@H]1CCCN1C(=O)CNC(=O)[C@H](Cc1ccccc1)NC(=O)[C@H](CC(N)=O)NC(=O)[C@H](CC(N)=O)NC(=O)[C@H](CO)NC(=O)[C@H](CO)NC(=O)[C@H](Cc1c[nH]cn1)NC(=O)[C@H](Cc1c[nH]cn1)NC(=O)[C@H](CC(C)C)NC(=O)[C@H](Cc1ccccc1)NC(=O)[C@H](CCC(=O)O)NC(=O)[C@H](C)NC(=O)[C@H](CC(C)C)NC(=O)[C@H](CCCNC(=N)N)NC(=O)[C@H](CCC(N)=O)NC(=O)[C@@H](NC(=O)[C@H](C)NC(=O)[C@@H]1CSSC[C@H](NC(=O)[C@H](Cc2c[nH]cn2)NC(=O)[C@H](Cc2c[nH]cn2)NC(=O)CC[C@H](NC(=O)CCCCCCCCCCCCCCCCCCC(=O)O)C(=O)O)C(=O)N[C@@H](CC(N)=O)C(=O)N[C@@H]([C@@H](C)O)C(=O)N[C@@H](C)C(=O)N[C@@H]([C@@H](C)O)C(=O)N1)[C@@H](C)O)C(=O)N[C@@H](CC(C)C)C(=O)N1CCC[C@H]1C(=O)N1CCC[C@H]1C(=O)N[C@H](C(=O)N[C@@H](CC(N)=O)C(=O)N[C@H](C(=O)NCC(=O)N[C@@H](CO)C(=O)N[C@@H](CC(N)=O)C(=O)N[C@H](C(=O)N[C@@H](Cc1ccc(O)cc1)C(N)=O)[C@@H](C)O)C(C)C)[C@@H](C)O
B5: N-alpha-[(S)-4-Carboxy-4-(19-carboxynonadecanoylamino)butyryl]-His-His-[His1,Glu14,Arg17]-pramlintide (peptide)
peptide: {C20 diacid-γGlu}-HHHCNTATCATQRLAEFLRHSSNNFGPILPPTNVGSNTY-NH2
modifications: disulfide 4-9
SMILES: CC[C@H](C)[C@H](NC(=O)[C@@H]1CCCN1C(=O)CNC(=O)[C@H](Cc1ccccc1)NC(=O)[C@H](CC(N)=O)NC(=O)[C@H](CC(N)=O)NC(=O)[C@H](CO)NC(=O)[C@H](CO)NC(=O)[C@H](Cc1c[nH]cn1)NC(=O)[C@H](CCCNC(=N)N)NC(=O)[C@H](CC(C)C)NC(=O)[C@H](Cc1ccccc1)NC(=O)[C@H](CCC(=O)O)NC(=O)[C@H](C)NC(=O)[C@H](CC(C)C)NC(=O)[C@H](CCCNC(=N)N)NC(=O)[C@H](CCC(N)=O)NC(=O)[C@@H](NC(=O)[C@H](C)NC(=O)[C@@H]1CSSC[C@H](NC(=O)[C@H](Cc2c[nH]cn2)NC(=O)[C@H](Cc2c[nH]cn2)NC(=O)[C@H](Cc2c[nH]cn2)NC(=O)CC[C@H](NC(=O)CCCCCCCCCCCCCCCCCCC(=O)O)C(=O)O)C(=O)N[C@@H](CC(N)=O)C(=O)N[C@@H]([C@@H](C)O)C(=O)N[C@@H](C)C(=O)N[C@@H]([C@@H](C)O)C(=O)N1)[C@@H](C)O)C(=O)N[C@@H](CC(C)C)C(=O)N1CCC[C@H]1C(=O)N1CCC[C@H]1C(=O)N[C@H](C(=O)N[C@@H](CC(N)=O)C(=O)N[C@H](C(=O)NCC(=O)N[C@@H](CO)C(=O)N[C@@H](CC(N)=O)C(=O)N[C@H](C(=O)N[C@@H](Cc1ccc(O)cc1)C(N)=O)[C@@H](C)O)C(C)C)[C@@H](C)O

Molecular target: T1, human amylin 3(a) receptor (human …)
Test: cell-based or functional assay

| Amylin receptor human EC50 [pM] | Binder |
| --- | --- |
| 131 | B1 |
| 105 | B2 |
| 192 | B3 |
| 111 | B4 |
| 77.5 | B5 |

Molecular target: T2, human calcitonin (a) receptor
Test: cell-based or functional assay

| CTa receptor human EC50 [pM] | Binder |
| --- | --- |
| 126 | B1 |
| 310 | B2 |
| 429 | B3 |
| 166 | B4 |
| 408 | B5 |

Molecular target: T3, rat calcitonin (a) receptor
Test: cell-based or functional assay

| CTa receptor rat EC50 [pM] | Binder |
| --- | --- |
| 1160 | B1 |
| 824 | B2 |
| 1340 | B3 |
| 221 | B4 |
| 6760 | B5 |

Molecular target: T4, rat amylin 3(a) receptor (rat …)
Test: cell-based or functional assay

| Amylin receptor rat EC50 [pM] | Binder |
| --- | --- |
| 187 | B1 |
| 132 | B2 |
| 133 | B3 |
| 147 | B4 |
| 82 | B5 |
